Assay results taken from the supplement of paper PMC6755084.

B1: minF1; the commonest letter at each place (parent)
chain: GAGACCGCAACTGAAAAGTTGTTATCAGAAATGGATGGGTTGAATTTCTGCACGTAGAAGCAAAAGGC

Variants of: B1
Assay: fraction ligated after 30 min (ligated reads / total reads); higher = more ligase activity
Details: with F1*subA RNA substrate (template-directed ligation), 42 °C
Outline: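 Using barcoded primers for reverse transcription and a MiSeq for sequencing, gel-separated ligated and unligated RNAs of minimized ligase ribozyme variants were read, with core-base filtering at quality ≥30. Fraction ligated per variant was defined as ligated reads over total reads.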

| Variant | fraction ligated |
| --- | --- |
| T25A G37T | 0.00505 |
| T25A G37C | 0.00598 |
| A24T A30C | 0.00942 |
| A24T A30T | 0.00805 |
| A24T A30G | 0.0104 |
| C26T G28T | 0.55 |
| C26T G28A | 0.362 |
| C26T G28C | 0.61 |
| C26G G28T | 0.0589 |
| C26G G28C | 0.0331 |
| C26G G28A | 0.0283 |
| A24G A35T | 0.00297 |
| A24G A35G | 0.0312 |
| T25G A29G | 0.0196 |
| T25G A29T | 0.0188 |
| T25G A29C | 0.0105 |
| T25G G34A | 0.00816 |
| T25G G34C | 0.00366 |
| T25G G34T | 0.0038 |
| C26A A29T | 0.112 |
| C26A A29G | 0.0844 |
| C26A A29C | 0.0944 |
| T25G T36C | 0.00768 |
| T25G T36G | 0.0257 |

| Variant | fraction ligated |
| --- | --- |
| T25G T36A | 0.0107 |
| C26G G42T | 0.00229 |
| C26G G42A | 0.00168 |
| C26G G42C | 0.00152 |
| C26G T36G | 0.00843 |
| C26G T36C | 0.00195 |
| C26G T36A | 0.00192 |
| T25C A31T | 0.0613 |
| T25C A31G | 0.057 |
| T25C A31C | 0.0548 |
| A24T T25C | 0.0313 |
| A24T T25A | 0.0063 |
| A24T T25G | 0.00899 |
| A24T A27T | 0.171 |
| A24T A27G | 0.0839 |
| A24T A27C | 0.105 |
| C26T A35T | 0.0022 |
| C26T A35C | 0.00406 |
| C26T A35G | 0.0104 |
| C26A G34A | 0.0394 |
| C26A G34C | 0.00194 |
| C26A G34T | 0.00758 |
| C26A T32G | 0.00324 |
| C26A T32C | 0.0036 |

| Variant | fraction ligated |
| --- | --- |
| C26A T32A | 0.00455 |
| T25C A35T | 0.009 |
| T25C A35G | 0.0463 |
| T25C A35C | 0.00531 |
| T25A C26A | 0.00271 |
| T25A C26T | 0.00642 |
| T25A C26G | 0.00462 |
| T25C G42A | 0.00331 |
| T25C G42T | 0.00269 |
| T25C G42C | 0.00383 |
| C26T A30C | 0.333 |
| C26T A30T | 0.339 |
| C26T A30G | 0.5 |
| C26A G42T | 0.00182 |
| C26A G42C | 0.00168 |
| C26A G42A | 0.00533 |
| C26A A43T | 0.00633 |
| C26A A43G | 0.00987 |
| C26A A43C | 0.00276 |
| A24T C26G | 0.0102 |
| A24T C26A | 0.00282 |
| A24T C26T | 0.0111 |
| C26G | 0.0466 |
| C26A | 0.121 |

| Variant | fraction ligated |
| --- | --- |
| C26T | 0.433 |
| T25C C26T | 0.079 |
| T25C C26G | 0.00975 |
| T25C C26A | 0.00962 |
| T25G A30T | 0.0162 |
| T25G A30G | 0.0222 |
| T25G A30C | 0.0106 |
| C26G A31C | 0.0238 |
| C26G A31T | 0.0387 |
| C26G A31G | 0.0731 |
| T25A A44G | 0.00172 |
| T25A A44T | 0.0103 |
| T25A A44C | 0.00273 |
| A24G A43G | 0.00288 |
| A24G A43T | 0.00328 |
| A24G A43C | 0.0035 |
| A24G A44C | 0.00892 |
| A24G A44G | 0.0186 |
| A24G A44T | 0.016 |
| C26A A31C | 0.0417 |
| C26A A31G | 0.102 |
| C26A A31T | 0.0701 |
| C26G G34C | 0.0293 |
| C26G G34A | 0.0747 |

| Variant | fraction ligated |
| --- | --- |
| C26G G34T | 0.00574 |
| T25G G33A | 0.0162 |
| T25G G33C | 0.00397 |
| T25G G33T | 0.0188 |
| A24T T32A | 0.00395 |
| A24T T32C | 0.000877 |
| A24T T32G | 0.00134 |
| A24T A44T | 0.00772 |
| A24T A44C | 0.00276 |
| A24T A44G | 0.0057 |
| C26A G37A | 0.00335 |
| C26A G37C | 0.00572 |
| C26A G37T | 0.00569 |
| T25G G37A | 0.00178 |
| T25G G37C | 0.00475 |
| T25G G37T | 0.00311 |
| C26A A27C | 0.134 |
| C26A A27T | 0.0953 |
| C26A A27G | 0.481 |
| C26T A29T | 0.43 |
| C26T A29G | 0.417 |
| C26T A29C | 0.39 |
| T25A G34C | 0.0033 |
| T25A G34A | 0.00806 |

| Variant | fraction ligated |
| --- | --- |
| T25A G34T | 0.00319 |
| C26A A30T | 0.0695 |
| C26A A30C | 0.0463 |
| C26A A30G | 0.216 |
| T25C A27T | 0.407 |
| T25C A27G | 0.209 |
| T25C A27C | 0.113 |
| T25A A43T | 0.00628 |
| T25A A43C | 0.00284 |
| T25A A43G | 0.00383 |
| A24G G37A | 0.00154 |
| A24G G37T | 0.00318 |
| A24G G37C | 0.000862 |
| T25G C26A | 0.00653 |
| T25G C26T | 0.00381 |
| T25G C26G | 0.00725 |
| C26T A44C | 0.091 |
| C26T A44T | 0.246 |
| C26T A44G | 0.142 |
| T25C G28C | 0.165 |
| T25C G28A | 0.15 |
| T25C G28T | 0.207 |
| C26T G33A | 0.481 |
| A24T A31C | 0.00611 |

| Variant | fraction ligated |
| --- | --- |
| A24T A31G | 0.00616 |
| A24T A31T | 0.00682 |
| A24T T36C | 0.00304 |
| A24T T36G | 0.0114 |
| A24T T36A | 0.0205 |
| T25A A31G | 0.0139 |
| T25A A31C | 0.00883 |
| T25A A31T | 0.00708 |
| C26G A44T | 0.0283 |
| C26G A44C | 0.00656 |
| C26G A44G | 0.0117 |
| T25C G34C | 0.00188 |
| T25C G34T | 0.00336 |
| T25C G34A | 0.00778 |
| A24G G42C | 0.00119 |
| A24G G42A | 0.00347 |
| A24G G42T | 0.000969 |
| T25G T32G | 0.00886 |
| T25G T32C | 0.00349 |
| T25G T32A | 0.00223 |
| T25C A30T | 0.0786 |
| T25C A30G | 0.0308 |
| T25C A30C | 0.081 |
